Measurements: patent US20130089875A1

Legend:
[1] = target: PEGylated insulin-like-growth-factor I (human) (UniProt P05019); assay: sandwich ELISA: PEG-IGF-I at 0.06 ng/ml captured by biotinylated anti-PEG antibody on Streptavidin plate; dig-IGFBP-4 at 100 ng/ml; anti-digoxygenin-HRP/ABTS; mean of three
[2] = target: PEGylated insulin-like-growth-factor I (human) (UniProt P05019); assay: sandwich ELISA: PEG-IGF-I at 0.50 ng/ml captured by biotinylated anti-PEG antibody on Streptavidin plate; dig-IGFBP-4 at 100 ng/ml; anti-digoxygenin-HRP/ABTS
[3] = target: PEGylated insulin-like-growth-factor I (human) (UniProt P05019); assay: sandwich ELISA: PEG-IGF-I at 1.00 ng/ml captured by biotinylated anti-PEG antibody on Streptavidin plate; dig-IGFBP-4 at 100 ng/ml; anti-digoxygenin-HRP/ABTS
[4] = target: PEGylated insulin-like-growth-factor I (human) (UniProt P05019); assay: sandwich ELISA: PEG-IGF-I at 0.25 ng/ml captured by biotinylated anti-PEG antibody on Streptavidin plate; dig-IGFBP-4 at 100 ng/ml; anti-digoxygenin-HRP/ABTS; mean of three
[5] = target: PEGylated insulin-like-growth-factor I (human) (UniProt P05019); assay: sandwich ELISA: PEG-IGF-I at 2.00 ng/ml captured by biotinylated anti-PEG antibody on Streptavidin plate; dig-IGFBP-4 at 100 ng/ml; anti-digoxygenin-HRP/ABTS
[6] = target: PEGylated insulin-like-growth-factor I (human) (UniProt P05019); assay: sandwich ELISA: PEG-IGF-I at 0.06 ng/ml captured by biotinylated anti-PEG antibody on Streptavidin plate; dig-IGFBP-4 at 100 ng/ml; anti-digoxygenin-HRP/ABTS
[7] = target: PEGylated insulin-like-growth-factor I (human) (UniProt P05019); assay: sandwich ELISA: PEG-IGF-I at 0.13 ng/ml captured by biotinylated anti-PEG antibody on Streptavidin plate; dig-IGFBP-4 at 100 ng/ml; anti-digoxygenin-HRP/ABTS
[8] = target: PEGylated insulin-like-growth-factor I (human) (UniProt P05019); assay: sandwich ELISA: PEG-IGF-I at 0.25 ng/ml captured by biotinylated anti-PEG antibody on Streptavidin plate; dig-IGFBP-4 at 100 ng/ml; anti-digoxygenin-HRP/ABTS
[9] = target: PEGylated insulin-like-growth-factor I (human) (UniProt P05019); assay: sandwich ELISA: PEG-IGF-I at 0.03 ng/ml captured by biotinylated anti-PEG antibody on Streptavidin plate; dig-IGFBP-4 at 100 ng/ml; anti-digoxygenin-HRP/ABTS
[10] = target: PEGylated insulin-like-growth-factor I (human) (UniProt P05019); assay: sandwich ELISA: PEG-IGF-I at 0.03 ng/ml captured by biotinylated anti-PEG antibody on Streptavidin plate; dig-IGFBP-4 at 100 ng/ml; anti-digoxygenin-HRP/ABTS; mean of three
[11] = target: PEGylated insulin-like-growth-factor I (human) (UniProt P05019); assay: sandwich ELISA: PEG-IGF-I at 2.00 ng/ml captured by biotinylated anti-PEG antibody on Streptavidin plate; dig-IGFBP-4 at 100 ng/ml; anti-digoxygenin-HRP/ABTS; mean of three
[12] = target: PEGylated insulin-like-growth-factor I (human) (UniProt P05019); assay: sandwich ELISA: PEG-IGF-I at 1.00 ng/ml captured by biotinylated anti-PEG antibody on Streptavidin plate; dig-IGFBP-4 at 100 ng/ml; anti-digoxygenin-HRP/ABTS; mean of three
[13] = target: PEGylated insulin-like-growth-factor I (human) (UniProt P05019); assay: sandwich ELISA: PEG-IGF-I at 0.13 ng/ml captured by biotinylated anti-PEG antibody on Streptavidin plate; dig-IGFBP-4 at 100 ng/ml; anti-digoxygenin-HRP/ABTS; mean of three
[14] = target: PEGylated insulin-like-growth-factor I (human) (UniProt P05019); assay: sandwich ELISA: PEG-IGF-I at 0.50 ng/ml captured by biotinylated anti-PEG antibody on Streptavidin plate; dig-IGFBP-4 at 100 ng/ml; anti-digoxygenin-HRP/ABTS; mean of three

- OD (absorption signal), mean [1]: 0.248 OD
- OD (absorption signal), Sample No. 1 [2]: 1.21 OD
- OD (absorption signal), Sample No. 2 [2]: 1.25 OD
- OD (absorption signal), Sample No. 3 [2]: 1.22 OD
- OD (absorption signal), Sample No. 1 [3]: 1.66 OD
- OD (absorption signal), Sample No. 2 [3]: 1.66 OD
- OD (absorption signal), Sample No. 3 [3]: 1.73 OD
- OD (absorption signal), mean [4]: 0.752 OD
- OD (absorption signal), Sample No. 1 [5]: 2.04 OD
- OD (absorption signal), Sample No. 2 [5]: 2.06 OD
- OD (absorption signal), Sample No. 3 [5]: 2 OD
- OD (absorption signal), Sample No. 1 [6]: 0.25 OD
- OD (absorption signal), Sample No. 2 [6]: 0.252 OD
- OD (absorption signal), Sample No. 3 [6]: 0.243 OD
- OD (absorption signal), Sample No. 1 [7]: 0.439 OD
- OD (absorption signal), Sample No. 2 [7]: 0.428 OD
- OD (absorption signal), Sample No. 3 [7]: 0.436 OD
- OD (absorption signal), Sample No. 1 [8]: 0.757 OD
- OD (absorption signal), Sample No. 2 [8]: 0.734 OD
- OD (absorption signal), Sample No. 3 [8]: 0.766 OD
- OD (absorption signal), Sample No. 1 [9]: 0.141 OD
- OD (absorption signal), Sample No. 2 [9]: 0.159 OD
- OD (absorption signal), Sample No. 3 [9]: 0.149 OD
- OD (absorption signal), mean [10]: 0.15 OD
- OD (absorption signal), mean [11]: 2.03 OD
- OD (absorption signal), mean [12]: 1.69 OD
- OD (absorption signal), mean [13]: 0.434 OD
- OD (absorption signal), mean [14]: 1.23 OD
B1: digoxygenylated insulin-like-growth-factor-binding-protein-4 (protein)
chain: DEAIHCPPCSEEKLARCRPPVGCEELVREPGCGCCATCALGLGMPCGVYTPRCGSGLRCYPPRGVEKPLHTLMHGQGVCMELAEIEAIQESLQPSDKDEGDHPNNSFSPCSAHDRRCLQKHFAKIRDRSTSGGKMKVNGAPREDARPVPQGSCQSELHRALERLAASQSRTHEDLYIIPIPNCDRNGNFHPKQCHPALDGQRGKCWCVDRKTGVKLPGGLEPKGELDCHQLADSFRE
modifications: digoxigenin coupled through digoxigenin 3-O-methylcarbonyl-epsilon-aminocaproic acid-N-hydroxysuccinimide ester (amine-reactive), molar ratio 1:5; positions not given
